Legend:
[1] = molecular target: MHC class II products (H-2s) on splenic antigen-presenting cells of SJL mice (mouse); experiment: flow cytometry, inhibition of binding of biotinylated peptide Ia (competitor) to SJL APC
[2] = molecular target: MHC class II products (H-2s) on splenic antigen-presenting cells of SJL mice (mouse); experiment: flow cytometry, inhibition of binding of biotinylated peptide IIIa (competitor) to SJL APC
[3] = molecular target: MHC class II products (H-2b) on splenic antigen-presenting cells of C57BL/6 mice (mouse) (UniProt P14434); experiment: flow cytometry, inhibition of binding of biotinylated peptide IIIa (competitor) to C57BL/6 APC
[4] = molecular target: MHC class II products (H-2d) on splenic antigen-presenting cells of BALB/c mice (mouse) (UniProt P04228); experiment: flow cytometry, inhibition of binding of biotinylated peptide Ia (competitor) to BALB/c APC
[5] = molecular target: MHC class II products (H-2b) on splenic antigen-presenting cells of C3H.SW mice (mouse) (UniProt P14434); experiment: flow cytometry, inhibition of binding of biotinylated peptide IIIa (competitor) to C3H.SW APC
[6] = molecular target: MHC class II products (H-2d) on splenic antigen-presenting cells of BALB/c mice (mouse) (UniProt P04228); experiment: flow cytometry, inhibition of binding of biotinylated peptide IIIa (competitor) to BALB/c APC
[7] = molecular target: MHC class II products (H-2b) on splenic antigen-presenting cells of C3H.SW mice (mouse) (UniProt P14434); experiment: flow cytometry, inhibition of binding of biotinylated peptide Ia (competitor) to C3H.SW APC
[8] = molecular target: MHC class II products (H-2b) on splenic antigen-presenting cells of C57BL/6 mice (mouse) (UniProt P14434); experiment: flow cytometry, inhibition of binding of biotinylated peptide Ia (competitor) to C57BL/6 APC
BALB/c and SJL mice = experiment: Clinical manifestations of SLE in immunized mice (WBC, proteinuria, kidney analysis); type: in vivo, mouse
Protocol: The erythrocyte sedimentation rate was determined by diluting the heparinized blood in PBS at a ratio of 1:1. The diluted blood was then passed to a microsampling pipette and the sedimentation was measured 6 hours later. White blood cell counts were determined after the hemolysis of heparinized blood. Proteinuria was measured in a semi-quantitative manner, using a Combistix kit (Ames, Stoke Poges, Slough, U.K.). Immunohistology was performed by incubation of fixed frozen cryostat sections with FITC-labeled antibodies to mouse Ig. Staining was visualized via use of a fluorescent microscope.
BALBtc and SJL mice were immunized with mAb 5G12 or with peptides Ia and IIIa, and five months later were checked by two criteria for manifestation of SLE: white blood cell count (WBC) and proteinuria.
(i) White blood cell count (WBC): The mice were bled, their blood was diluted 1:10 with 1% (vol/vol) acetic acid in order to eliminate the red blood cells, and white blood cells were counted under a normal light microscope.
Proteinuria: The urine of the mice was tested using combisticks (Combistix Kit, Ames) for the presence of protein.

[9] = test system: peripheral blood lymphocytes (PBL); experiment: Proliferation of PBL from SLE patients and healthy controls; type: cell-based, human
Protocol: (§1) PBL from human SLE patients and of the appropriate control donors (2×10^5/well) were cultured in microtiter plates in enriched medium containing 10% pooled AB sera in the presence of the human or mouse monoclonal 16/6 Id antibody, in the presence of peptides of the invention or in the presence of phytohemagglutinin (PHA). The rate of proliferation was evaluated by the incorporation of ^3[H]-thymidine in the cell culture. Non-relevant peptides were used as specificity controls. Antigen and mitogen-stimulated cytokine production was quantitated in the supernatants of the above cultures using either the cytokine-dependent lines or the appropriate pairs of antibodies in ELISA assays. Inhibition of the proliferative responses was performed in vitro by adding increasing doses of the tested peptide analogs into the proliferative culture mixtures.
Peripheral blood lymphocytes (PBL) were isolated from the blood of SLE patients or healthy controls using ficol gradient. Thereafter, the PBL were incubated in the presence of different concentrations of the peptides Ia, IIa or IIIa, or the human 16/6 Id mAb for 24 hr, when a sample was taken for IL-2 measurement. The assay was continued for a total of 7 days, and ^3H-thymidine was added for the last 16 hr. Proliferation was detected by reading the amount of radioactivity incorporated into the DNA of the cells.

[10] = test system: peripheral blood lymphocytes (PBL); experiment: IL-2 production by PBL of SLE patients and healthy controls; type: cell-based, human; details: sample at 24 hr
Protocol: as §1
PBL were isolated from blood of SLE patients or healthy controls using ficol gradient, and were incubated as in Example 13. A sample of 50 μl was removed 24 hr after the assay was started, and incubated in the presence of IL-2 sensitive cells (CTLD) for 24 hr, after which ^3H-thymidine was added for 16 hr, and the plates were harvested and counted on a beta counter.

[11] = test system: antibodies in sera of SLE patients and healthy controls; experiment: Antibodies in human sera binding coated peptides or mAb 5G12 (ELISA); details: 32 SLE patients in comparison to healthy controls; plates coated 10 μg/ml
Protocol: Human SLE patients (32 patients) were bled and their sera were tested by ELISA for their ability to bind the peptides Ia, IIa and IIIa, a control peptide p195-212 (a myasthogenic peptide described in PCT publication No. WO 94/00148) or mAb 5G12.
Detection of the antibodies was conducted on plates that were coated with 10 μg/ml of peptides Ia, IIa, IIIa or p195-212 or mAb 5G12, in PBS for 2 hr, washed and blocked with 1% ovalbumin in PBS for an additional 2 hr. ELISA was continued as described after blockage in Example 2 above, using goat anti-human IgG polyclonal antibody conjugated to peroxidase.

Substance | % inhibition [1] [%] | % inhibition [2] [%] | % inhibition [3] [%] | % inhibition [4] [%] | % inhibition [5] [%] | % inhibition [6] [%] | % inhibition [7] [%] | % inhibition [8] [%] | protein level in urine (in words) (BALB/c and SJL mice; BALB/c mice) | protein level in urine (in words) (BALB/c and SJL mice; SJL mice) | proliferation of PBL, actual number of responders ([9]; SLE patients) | proliferation of PBL, percentage of responders ([9]; SLE patients) [%] | proliferation of PBL, actual number of responders ([9]; healthy controls) | proliferation of PBL, percentage of responders ([9]; healthy controls) [%] | IL-2 production by PBL, actual number of responders ([10]; SLE patients) | IL-2 production by PBL, percentage of responders ([10]; SLE patients) [%] | IL-2 production by PBL, actual number of responders ([10]; healthy controls) | IL-2 production by PBL, percentage of responders ([10]; healthy controls) [%] | levels of serum antibodies that bind the coated peptide or mAb [11]
10.3.6.2 (anti-I-A^s (Zamvil et al., 1988)) (antibody) | 100 | 92.8 |  |  |  |  |  |  |  |  |  |  |  |  |  |  |  |  | 
34-5-3 (anti-I-A^b, Pharmingen) (antibody) |  |  | 59.3 | 0 | 84.4 | 0 | 60 | 82 |  |  |  |  |  |  |  |  |  |  | 
EINPSTGGTTYNQKFKAKAT (EINPSTGGTTYNQKFKAKAT) [peptide IIa, based on the CDR2 region of the VH chain of mAb 5G12] |  |  |  |  |  |  |  |  | smaller increase in protein level | High levels of protein | 3/32 | 9 | 7/25 | 28 | 3/32 | 9 | 8/25 | 32 | significantly higher levels of antibodies
MKD6 (anti-I-A^d, Beckton-Dickinson) (antibody) | 0 | 0 | 0 | 76.7 | 25 | 100 | 0 | 0 |  |  |  |  |  |  |  |  |  |  | 

Reference: patent US6613536B1, “Synthetic peptides and pharmaceutical compositions comprising them for the treatment of systemic lupus erythematosus” (Yeda Research and Development Co. Ltd., priority 1995, dated 2003)
